{"source": "paper PMC10700544", "about": "“Acetylation regulates the oligomerization state and activity of RNase J, the Helicobacter pylori major ribonuclease” (Nature Communications, 2023)", "target": "the molecule itself", "experiment": "crystal structure; crystals from 0.1 M HEPES pH 7.5, 25% wt/v polyethylene glycol 1000; space group P4(1)22; one monomer in the asymmetric unit, tetramer by crystal symmetry", "data": [{"protein": "RNase J residues 139–691 (H. pylori strain 26695) with a C-terminal hexa-histidine tag (domain or fragment, Helicobacter pylori strain 26695, UniProt P56185 137-689, looked up, the results say 137–691); One monomer in the asymmetric unit; the tetramer (dimer-of-dimers) is generated by crystal symmetry; The CTD (587–691) is poorly ordered in the crystal; also called RNase J 139–691; C1hRSEj; source: E. coli, co-expressed with RhpA 21–465, purified (HiTrap Ni column, HALO resin flow-through, S200 SEC)) SKASVKITPLGGLGEIGGNMMVIETPKSAIVIDAGMSFPKEGLFGVDILIPDFSYLHQIKDKIAGIIITHAHEDHIGATPYLFKELQFPLYGTPLSLGLIGSKFDEHGLKKYRSYFKIVEKRCPISVGEFIIEWIHITHSIIDSSALAIQTKAGTIIHTGDFKIDHTPVDNLPTDLYRLAHYGEKGVMLLLSDSTNSHKSGTTPSESTIAPAFDTLFKEAQGRVIMSTFSSNIHRVYQAIQYGIKYNRKIAVIGRSMEKNLDIARELGYIHLPYQSFIEANEVAKYPDNEILIVTTGSQGETMSALYRMATDEHRHISIKPNDLVIISAKAIPGNEASVSAVLNFLIKKEAKVAYQEFDNIHVSGHAAQEEQKLMLRLIKPKFFLPVHGEYNHVARHKQTAISCGVPEKNIYLMEDGDQVEVGPAFIKKVGTIKSGKSYVDNQSNLSIDTSIVQQREEVASAGVFVATIFVNKNKQALLESSQFSSLGLVGFKDEKPLIKEIQGGLEVLLKSSNAEILNNPKKLEDHTRNFIRKALFKKFRKYPAIICHAHSF", "values": [{"measurement": "stoichiometry N", "result": 4}]}]}
